Results from US20240141372A1, “TRANSGENIC BANANA PLANTS HAVING INCREASED RESISTANCE TO FUSARIUM OXYSPORUM TROPICAL RACE 4 AND METHODS OF PRODUCING SAME” (Elo Life Systems, priority 2022, published 2024).

B1: Ma08_p22790.1: snakin antimicrobial protein, Musa acuminata (protein, listed as Musa acuminata)
chain: RISLAPTAQPGNPLGPTPQPIKFPMYGATPGSLQPQECSGRCAGRCSATAYKKPCMFFCQKCCAKCLCVPPGTYGNKQVCPCYNNWKTKRGGPKCP
B2: Ma06_p20150.1: snakin antimicrobial protein, Musa acuminata (protein, listed as Musa acuminata)
chain: EREINCEAKCSHRCSKASRHKMCMRACVDCCHKCHCVPPGTYGHKEECPCYAHMKTRHGKPKCP
B3: Ma07_p21450.1: snakin antimicrobial protein, Musa acuminata (protein, listed as Musa acuminata)
chain: KDAFMEAGYAKAPVVAPVPAPPAPRIIKDTKECGDACKDRCKLHSRQNVCSRACITCCSVCKCVPPGTYGHTELCGKCYTDWKTHGNRTKCP
B4: Ma10_p18110.1: snakin antimicrobial protein, Musa acuminata (protein, listed as Musa acuminata)
chain: GSAFCGSKCKVRCSKASVKDRCLKYCGLCCEQCRCVPSGTYGHKDECPCYRDKYTGSGKRRRPKCP
B5: Ma06_p09450.1: snakin antimicrobial protein, Musa acuminata (protein, listed as Musa acuminata)
chain: ADSAYCKSKCKVRCAKAGVMDRCLYYCGMCCEECKCVPSGTYGNKDECPCYRDKVTKDDKKKSKCP
B6: Ma09_p13940.1: snakin antimicrobial protein, Musa acuminata (protein, listed as Musa acuminata)
chain: RKAVVEDEPPVSGGGDGKPPVPVIDCAGLCGVRCSRHSRPNLCKRACGTCCFRCKCVPPGTSGNREMCGACYTNMTTHGNRTKCP
B7: Ma09_p27770.1: snakin antimicrobial protein, Musa acuminata (protein, listed as Musa acuminata)
chain: GSLKPSECNNKCDFRCSATSHKKPCLFFCKECCATCLCVPPGTYGNKEACPCYNNWKTKEGGPKCP
B8: Ma03_p07220.1: TLP antimicrobial protein, Musa acuminata (protein, listed as Musa acuminata)
chain: ATLALYNKCRETVWPGIQPSAGKAVLARGGFQLLPNQAYSLRLPAGWSGRVWGRRGCAFDPATGRGRCATGDCGGALYCNGLGGAPPATLAEFTLGQGRQQDFYDVSLVDGYNLGMSMTPFRGSGQCGRAGCVSDLNEVCPAGLAVRGGTDNRVVACKSACSAFGSPRYCCTGSFGGPQQCKPTAYSRLFKAACPRAYSYAYDDPTSILTCTGASYLVTFCPQH
B9: Ma09_p26730.1: TLP antimicrobial protein, Musa acuminata (protein, listed as Musa acuminata)
chain: ATFEIVNWCPFTVWAAAVPGGGRQLDRGQTWVLDVNPGTTGGRIWARTGCSFDGSGSGSCQTGDCGGVLACQGYGSPPNTLAEFALNQFDNLDFLDVSLVDGFNVPMEFSPITGNCSAIRCLADIKGQCPAELWTPGGCNNPCTVFKTDEYCCTSGSCGPTNYSNFFKSNCPDAYSYPKDDATSTFTCPGNGDYKVIFCPSDGYPTRFGRTAVRFVIPRA
B10: Ma06_p33150.1: TLP antimicrobial protein, Musa acuminata (protein, listed as Musa acuminata)
chain: TFEIVNRCSYTVWAAAVPGGGRQLNQGQSWTINVNAGTTGGRIWGRTGCSFDGSGRGRCQTGDCGGVLSCTAYGSPPNTLAEFALNQFNNLDFFDISLVDGFNVPMDFSPTSGGCRGIRCAADINGQCPGALKAPGGCNNPCTVFKTDQYCCNSGSCSPTDYSRFFKRNCPDAYSYPKDDQTSTFTCPGGTNYRVVFCP

tested on: Foc_TR4; experiment: In vitro spore germination and mycelial growth assay; type: cell-based, Fusarium oxysporum f.sp. cubense Tropical Race 4; settings: Foc_TR4 spores, purified Pichia-secreted protein, low ionic strength media, 25° C., A595 at 48 hours; read-out: IC50 (μM, CE fraction)

| Molecule | IC50 |
| --- | --- |
| B1 | 0.52 ± 0.08 µM |
| B2 | 0.53 ± 0.01 µM |
| B3 | 0.9 ± 0.05 µM |
| B4 | 1.31 ± 0.03 µM |
| B5 | 2.71 ± 0.53 µM |
| B6 | 0.38 ± 0.01 µM |
| B7 | 0.08 ± 0.003 µM |
| B8 | 0.009 ± 0.0005 µM |
| B9 | > 31 µM |
| B10 | 0.029 ± 0.001 µM |
